Experimental findings from publication PMC7642319, “Behavior control of membrane-less protein liquid condensates with metal ion-induced phase separation” (Nature Communications, 2020) are described below.

B1: proline-rich motif (PRM) peptide, wild type (peptide)
chain: MKKKKTAPTPPKRS
B2: EE mutant PRM(H) peptide (two Lys residues mutated to acidic EE) (peptide)
chain: MEETPPPVPPRTTSK
B3: ELEL mutant PRM peptide (four Lys residues mutated to acidic ELEL) (peptide)
chain: ELELTAPTPPKRS
B4: PRM(H) peptide, wild type (peptide)
chain: MKKTPPPVPPRTTSK
B5: P7A P9A double mutant PRM(H) peptide (peptide)
chain: MKKTPPAVAPRTTSK
B6: P7A mutant PRM(H) peptide (peptide)
chain: MKKTPPAVPPRTTSK
B7: P9A mutant PRM(H) peptide (peptide)
chain: MKKTPPPVAPRTTSK

What is called Kd is the concentration at which binding is half-saturated. Low values mean tighter binding, high ones weaker binding.

In the test the target is T1, second SH3 domain from Nck.
T1 construct: second SH3 domain of Nck; The methods say that 6His-tagged proteins were purified on Ni-IDA and that the tag could be removed with TEV protease; also called free SH3; SH3 domain proteins; source: E. coli BL21 (DE3), pET-21a, purified (Ni-IDA)
Briefly: ITC; SH3 domain in the cell, chemically synthesized peptide as titrant in the syringe; PBS pH 7.4, 25 °C; one-site binding model. The note with it: both partners purified. Background: Isothermal titration calorimetry measures the heat released or taken up as one component is titrated into another.
B1: binding was put at a Kd of 379 µM.

Regarding B2, binding was characterised by a dissociation constant (Kd) of 3.32 µM.

B3 showed a Kd of 121 µM. Compared with the last molecule, the Kd is about 36-fold higher.

In turn, B4 came in with a Kd of 12.8 µM.

As for B5, binding was characterised by a dissociation constant (Kd) of 131 µM.

B6 registered a Kd of 19.4 µM.

B7 yielded a Kd of 102 µM.
